Data as given in the supplement of paper PMC9732359.
± gives the uncertainty stated by the source.

Test: protein stability index of a GFP-peptide fusion (yeast GPS) (PSI 1-4); higher = more stable; sorted into four equal gates, so the index is relative within each strain
In short: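 Tiled 17-residue yeast protein peptides were fused downstream of GFP in a plasmid that also expresses Cherry, and the pooled library was carried in yeast. Mid-log cultures in leucine-free medium were sorted into four equal gates by GFP/Cherry fluorescence ratio, and plasmids from each gate were PCR-amplified and Illumina-sequenced, with reads assigned to strains by barcodes. The protein stability index for each peptide was each gate's read frequency times its gate number, summed.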

Row | Sequence | protein stability index (doa10∆) | protein stability index (pdr5∆) | protein stability index (san1∆) | protein stability index (ubr1∆)
1 | QWSRIVLQNVFKLVSTP [MED1] | 1.4 ± 0.039 | 1.24 ± 0.043 | 1.23 ± 0.08 | 1.34 ± 0.038
2 | STRLKKACKTADKLVNV [SRP68] | 3.38 ± 0.081 | 3.26 ± 0.073 | 2.98 ± 0.074 | 3.18 ± 0.052
3 | NARMPGMPNMPGMPNMP [SRP54] | 3.34 ± 0.11 | 3.25 ± 0.085 | 3.09 ± 0.062 | 2.94 ± 0.071
4 | IGSTSKRPIESGTSSDP [YIL149C/MLP2] | 3.23 ± 0.087 | 3.22 ± 0.1 | 3.17 ± 0.11 | 3.36 ± 0.064
5 | IVVAMTGKDCVAIACDL [PUP3] | 1.38 ± 0.062 | 1.47 ± 0.07 | 2.08 ± 0.066 | 2.31 ± 0.046
6 | IRCHREDCDLVIMALML [POP5] | 2.45 ± 0.053 | 2.65 ± 0.064 | 2.01 ± 0.091 | 2.81 ± 0.047
7 | SLFSHRKHTRGDVSSGL [BRN1] | 3.28 ± 0.19 | 3.01 ± 0.17 | 3.28 ± 0.16 | 3.22 ± 0.059
8 | QIIQRDKINKYSLIRET [SNF5] | 1.39 ± 0.093 | 1.3 ± 0.13 | – | 1.15 ± 0.2
9 | PKSSPLKKNNYNSFPHS [SIR4] | 2.79 ± 0.099 | 3.08 ± 0.076 | 3.07 ± 0.046 | 3.06 ± 0.039
10 | AVVVRGRYAGKKVVIVK [RPL27A] | 3.13 ± 0.11 | 3.38 ± 0.067 | 3.03 ± 0.074 | 2.81 ± 0.082
11 | EGKVTKLRRECSNPTCG [RPS31] | 3.31 ± 0.11 | 3.16 ± 0.089 | 3.18 ± 0.078 | 3.1 ± 0.083
12 | SELIRTTLDAEKVFTQG [FAS1] | 3.14 ± 0.067 | 3.16 ± 0.066 | 3.22 ± 0.079 | 3.08 ± 0.07
13 | ILQQRSKINSTELLDYA [MED4] | 2.84 ± 0.086 | 2.61 ± 0.081 | 2.44 ± 0.054 | 2.97 ± 0.11
14 | VPSPTGEYVKEPEWVLE [RPO21] | 3 ± 0.11 | 3.07 ± 0.12 | 2.85 ± 0.28 | 3.15 ± 0.062
15 | MDHEEARRKHVSGKILG [RPS22A] | 2.83 ± 0.28 | 2.65 ± 0.24 | 2.87 ± 0.24 | 3.02 ± 0.12
16 | SPLNTTTKILGDKILGN [YML103C/NUP188] | 2.33 ± 0.055 | 2.63 ± 0.049 | 2.45 ± 0.059 | 2.12 ± 0.028
17 | ILSLATEGCIGLSQTEA [MCD1] | 2.58 ± 0.056 | 2.49 ± 0.068 | 2.81 ± 0.09 | 2.4 ± 0.062
18 | NNPLLLIVDVKQQGVGL [RPN8] | 1.27 ± 0.14 | 1.87 ± 0.1 | 1.87 ± 0.15 | 2.15 ± 0.1
19 | SQAFDIVAALPISEKGL [RPP1] | 2.85 ± 0.18 | 3.02 ± 0.2 | 2.66 ± 0.18 | 2.66 ± 0.15
20 | FIVVPDLLKNAPLFKKN [SMD3] | 2.07 ± 0.053 | 1.57 ± 0.042 | 1.66 ± 0.11 | 1.32 ± 0.035
21 | KQFVVDVLHPNRANVSK [RPS24A] | 2.94 ± 0.073 | 3.24 ± 0.082 | 2.96 ± 0.079 | 3.07 ± 0.05
22 | KDEEIEKLLQQDREITN [MED8] | 3.26 ± 0.13 | 3.12 ± 0.13 | 3.06 ± 0.24 | 3.59 ± 0.14
23 | VVRNMLALTTLSEPLIK [YCG1] | 1.87 ± 0.07 | 1.6 ± 0.059 | 1.4 ± 0.11 | 1.66 ± 0.061
24 | GKILLKGDNITLITSAD [SME1] | 2.62 ± 0.092 | 3.23 ± 0.1 | 2.77 ± 0.092 | 3.2 ± 0.053
25 | NDDELNKLLGNVTIAQG [HTA1] | 3.31 ± 0.12 | 3.5 ± 0.12 | 3.48 ± 0.064 | 3.34 ± 0.078
26 | LSKMRDSVLQLASFEKT [RPO31] | 3.12 ± 0.13 | 2.97 ± 0.079 | 2.91 ± 0.11 | 3.01 ± 0.11

Row | Sequence | protein stability index (doa10∆) | protein stability index (pdr5∆) | protein stability index (san1∆) | protein stability index (ubr1∆)
27 | EILNECHDELKALPMLE [MED4] | 2.52 ± 0.11 | 2.95 ± 0.16 | 2.59 ± 0.083 | 3.09 ± 0.088
28 | AISQSLRDESLTVDNLS [PRE5] | 2.96 ± 0.093 | 3.15 ± 0.089 | 3.33 ± 0.078 | 3.32 ± 0.06
29 | SVTAQVYKIALRLTEQK [RPC82] | 1.79 ± 0.15 | 2.19 ± 0.14 | 2.22 ± 0.19 | –
30 | FAEENITHKLTKNDAGS [BRR2] | 3.26 ± 0.084 | 3.22 ± 0.07 | 2.88 ± 0.055 | 3.46 ± 0.1
31 | TTVFFSRQKSGLFDSFT [YML031W/NDC1] | 1.49 ± 0.042 | 1.45 ± 0.055 | 1.54 ± 0.11 | 1.55 ± 0.048
32 | KDRYINGDKKVDIYSLP [YMR129W/POM152] | 3.15 ± 0.091 | 2.77 ± 0.094 | 3.03 ± 0.042 | 3.23 ± 0.069
33 | ANPKKLALMTAHSLSPK [CDC53] | 2.43 ± 0.052 | 2.78 ± 0.054 | 2.72 ± 0.057 | 2.32 ± 0.036
34 | DWPTYVDQNPLTMHKII [SRB8] | 2.45 ± 0.09 | 2.76 ± 0.08 | 2.69 ± 0.074 | 2.91 ± 0.07
35 | KKNNAASELANPYSSYV [YAR002W/NUP60] | 2.99 ± 0.062 | 3.02 ± 0.047 | 2.98 ± 0.047 | 2.83 ± 0.054
36 | PRGTAKLIIHRKNDNAN [SMC3] | 1.68 ± 0.29 | 2.34 ± 0.18 | – | 1.95 ± 0.087
37 | LLTCYELEKKYHGNECE [SRB8] | 2.71 ± 0.082 | 3 ± 0.061 | 3.3 ± 0.068 | 3.21 ± 0.055
38 | AIRADPAFKPTEKKFTK [RPL5] | 3.11 ± 0.26 | 3.15 ± 0.3 | 3.18 ± 0.2 | 3.2 ± 0.24
39 | RIMSTRCMMAAQYFYSG [DIS3] | 1.67 ± 0.06 | 1.95 ± 0.058 | 1.58 ± 0.079 | 1.77 ± 0.04
40 | IYSVEKKISRLPKFLTV [UBP6] | 2.04 ± 0.065 | 2.07 ± 0.066 | 2.14 ± 0.091 | 2.46 ± 0.035
41 | YLGTKVELPYGAHGYSG [PRE1] | 2.77 ± 0.18 | 2.38 ± 0.11 | 2.5 ± 0.1 | 2.96 ± 0.086
42 | DTTANNGKVQYFLRRQY [YJL039C/NUP192] | 2.71 ± 0.095 | 2.65 ± 0.14 | 2.83 ± 0.15 | 2.98 ± 0.091
43 | LGSKKELGISLEHPYGK [SNU114] | 3.08 ± 0.11 | 2.99 ± 0.13 | 3.1 ± 0.15 | 3.28 ± 0.088
44 | FAVIYLCDIDEVSDFDE [DIB1] | 1.46 ± 0.13 | 2.16 ± 0.1 | 1.51 ± 0.17 | 1.64 ± 0.14
45 | LVEPSKVGQFDQVLNLC [FAS1] | 2.35 ± 0.13 | 2.41 ± 0.09 | 2.78 ± 0.11 | 2.73 ± 0.16
46 | RSEKSTTNAQTKKLIQK [SRP54] | – | 2.82 ± 0.13 | 2.77 ± 0.15 | 2.94 ± 0.098
47 | EFGTYGKYVIAGHVSGV [RPN14] | 1.57 ± 0.14 | 1.57 ± 0.22 | 1.25 ± 0.3 | –
48 | HNAGPVAGAGAASGAAA [RPP1B] | 3.11 ± 0.11 | 2.24 ± 0.05 | 2.22 ± 0.12 | 2.02 ± 0.059
49 | NNYKDLLAVAIAASYHY [RPP0] | 1.4 ± 0.065 | 1.95 ± 0.12 | 1.39 ± 0.15 | 1.64 ± 0.068
50 | VIFVERATPATLTELKD [SRB2] | 2.84 ± 0.091 | 2.02 ± 0.063 | 2.4 ± 0.12 | 3.23 ± 0.098
51 | FLIIVPKSTLDNWRREF [ISW2] | – | 2.37 ± 0.27 | 1.94 ± 0.16 | 1.99 ± 0.22
52 | TEDILKEISTRVFNAKD [YCS4] | 3.11 ± 0.13 | 3.17 ± 0.095 | 3.25 ± 0.095 | 3.29 ± 0.092
